Read-outs that look alike come from different tables or passages of the source. One block for each binder: values may come before it.
Columns and labels:
human OX40 on cells [1] = target: T1, human OX40 on cells (human, UniProt P43489 29-277); assay: cell-based or functional assay
T1 sequence: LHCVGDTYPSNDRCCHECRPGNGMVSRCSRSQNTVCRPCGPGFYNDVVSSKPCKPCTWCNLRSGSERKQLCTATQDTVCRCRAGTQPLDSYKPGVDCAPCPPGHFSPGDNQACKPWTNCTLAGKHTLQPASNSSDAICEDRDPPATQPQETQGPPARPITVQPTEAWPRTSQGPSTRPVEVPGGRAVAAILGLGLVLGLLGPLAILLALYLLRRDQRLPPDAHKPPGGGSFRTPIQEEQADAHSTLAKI

human OX40 on cells [2] = target: T1, human OX40 on cells; assay: cell-based or functional assay; remark: listed apart in the source
[3] = target: T2, dimeric human OX40 Fc fusion with a C-terminal Ha tag (human); assay: SPR, OX40 Fc held on OX40 ligand
T2 construct: also called recombinant human Ox40 Fc; huOx40-Fc

[4] = target: T3, recombinant human OX40 His (human); assay: SPR, captured IgG, OX40 His analyte
T3 construct: ectodomain with avi and hexahistidine tag; also called human Ox40 avi His
T3 chain: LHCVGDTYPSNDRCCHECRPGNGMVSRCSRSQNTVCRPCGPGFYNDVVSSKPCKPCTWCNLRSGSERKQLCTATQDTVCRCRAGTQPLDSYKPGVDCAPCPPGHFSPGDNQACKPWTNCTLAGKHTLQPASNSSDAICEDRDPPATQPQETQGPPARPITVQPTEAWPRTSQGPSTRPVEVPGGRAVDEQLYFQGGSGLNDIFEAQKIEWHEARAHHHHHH

[5] = target: T4, recombinant human OX40 Fc(kih) (human, UniProt P0DOX5 223-449 = IgG part, biotin on C-terminal Avi tag where used biotinylated); assay: SPR, captured IgG, OX40 Fc(kih) analyte
T4 construct: antigen Fc knob chain plus Fc hole chain; also called monomeric human OX40 antigen Fc(kih) fusion; biotinylated human OX40

human OX40 on cells [6] = target: T1, human OX40 on cells; assay: flow cytometry, activated human CD4 T cells
[7] = target: recombinant cynomolgus OX40 Fc(kih) (cynomolgus, UniProt P0DOX5 223-449 = IgG part, biotin on C-terminal Avi tag where used biotinylated); assay: SPR, captured IgG, cyno OX40 Fc(kih) analyte
[8] = target: T5, cynomolgus OX40 on activated cynomolgus PBMC (cynomolgus, UniProt P43489 29-214 (human entry)); assay: flow cytometry, activated cynomolgus CD4 T cells
T5 construct: whole, on cells
T5 chain: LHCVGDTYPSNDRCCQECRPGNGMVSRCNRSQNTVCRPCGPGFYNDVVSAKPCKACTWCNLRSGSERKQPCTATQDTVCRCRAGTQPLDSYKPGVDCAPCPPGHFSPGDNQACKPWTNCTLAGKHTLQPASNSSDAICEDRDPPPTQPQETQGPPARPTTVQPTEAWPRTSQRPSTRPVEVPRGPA

[9] = target: recombinant murine OX40 Fc(kih) (murine, UniProt P0DOX5 223-449 = IgG part, biotin on C-terminal Avi tag); assay: SPR avidity format, murine OX40 Fc(kih) on SA chip
[10] = target: T6, recombinant murine OX40 (cleaved by AcTEV digestion) (murine, UniProt P47741 20-211); assay: SPR, captured IgG, AcTEV-cleaved murine OX40 analyte
T6 construct: Fc removed from murine OX40 Fc(kih)
T6 sequence: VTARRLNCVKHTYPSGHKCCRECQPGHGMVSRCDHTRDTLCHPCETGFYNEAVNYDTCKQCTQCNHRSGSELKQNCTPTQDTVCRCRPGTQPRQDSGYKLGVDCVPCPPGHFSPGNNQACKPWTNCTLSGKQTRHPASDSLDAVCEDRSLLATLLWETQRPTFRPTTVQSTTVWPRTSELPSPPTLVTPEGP

[11] = target: T7, recombinant murine GITR Fc(kih) (murine, UniProt P0DOX5 223-449 = IgG part, biotin on C-terminal Avi tag); assay: SPR ProteOn XPR36, Fab as analyte
T7 construct: also called mu GITR-Fc

[12] = target: T8, recombinant human GITR Fc(kih) (human, UniProt P0DOX5 223-449 = IgG part, biotin on C-terminal Avi tag where used biotinylated); assay: SPR ProteOn XPR36, biotinylated GITR-Fc on NLC chip, Fab analyte
T8 construct: also called hu GITR-Fc; human monomeric GITR-Fc fusion

[13] = target: T9, recombinant cynomolgus GITR Fc(kih) (cynomolgus, UniProt P0DOX5 223-449 = IgG part, biotin on C-terminal Avi tag where used biotinylated); assay: as above
T9 construct: also called cy GITR-Fc

human 4-1BB on cells [14] = target: T10, human 4-1BB on cells (human, UniProt Q07011 24-255); assay: cell-based or functional assay
[15] = target: T11, mouse 4-1BB on activated mouse splenocytes (mouse, UniProt P20334 24-256); assay: flow cytometry, activated mouse T cells
[16] = target: T12, recombinant human 4-1BB Fc(kih) (human, UniProt P0DOX5 223-449 = IgG part, biotin on C-terminal Avi tag where used biotinylated); assay: SPR, captured IgG, 4-1BB Fc(kih) analyte
T12 construct: also called hu4-1BB; biotinylated human 4-1BB

human 4-1BB on cells [17] = target: T10, human 4-1BB on cells; assay: flow cytometry, activated human CD8 T cells
human 4-1BB on cells [18] = target: T10, human 4-1BB on cells; assay: flow cytometry, activated human CD8+ T cells
[19] = target: recombinant cynomolgus 4-1BB Fc(kih) (cynomolgus, UniProt P0DOX5 223-449 = IgG part, biotin on C-terminal Avi tag where used biotinylated); assay: SPR, captured IgG, cyno 4-1BB Fc(kih) analyte
[20] = target: T13, human fibroblast activation protein (huFAP) on cells (human, UniProt Q12884 1-760); assay: flow cytometry, WM-266-4 and NIH/3T3-huFAP clone 19
T13 construct: also called NIH/3T3-huFAP clone 39; NIH/3T3-huFAP clone 19

[21] = target: T14, cynomolgus 4-1BB on activated cynomolgus PBMC (cynomolgus, UniProt Q07011 24-255 (human entry)); assay: flow cytometry, activated cynomolgus CD4 T cells
T14 chain: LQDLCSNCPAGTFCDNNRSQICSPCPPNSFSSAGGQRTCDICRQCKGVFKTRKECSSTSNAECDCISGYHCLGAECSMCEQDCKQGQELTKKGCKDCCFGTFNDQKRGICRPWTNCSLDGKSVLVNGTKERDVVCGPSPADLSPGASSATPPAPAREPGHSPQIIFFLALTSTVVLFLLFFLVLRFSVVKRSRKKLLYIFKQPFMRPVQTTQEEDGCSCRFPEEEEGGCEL

[22] = target: T14, cynomolgus 4-1BB on activated …; assay: flow cytometry, activated cynomolgus CD8 T cells
[23] = target: T15, hu4-1BB-SNAP fusion protein on Hek293 EBNA cells (human, UniProt Q07011 24-255, labeled with the FRET donor Terbium); assay: cell FRET competition against d2-labeled anti-4-1BB tracer, 4 h
T15 construct: not shown: SNAP tag

[24] = target: T12, recombinant human 4-1BB Fc(kih); assay: SPR
human 4-1BB on cells [25] = target: T10, human 4-1BB on cells; assay: flow cytometry, activated human T cells
[26] = target: T11, mouse 4-1BB on activated mouse …; assay: flow cytometry, activated murine CD4 T cells
[27] = target: T11, mouse 4-1BB on activated mouse …; assay: flow cytometry, activated murine CD8 T cells
[28] = target: T16, recombinant murine 4-1BB AcTEV (murine, UniProt P20334 24-187); assay: SPR, captured IgG, murine 4-1BB AcTEV analyte
T16 construct: murine 4-1BB Fc(kih) cleaved with AcTEV protease, Fc removed
T16 sequence: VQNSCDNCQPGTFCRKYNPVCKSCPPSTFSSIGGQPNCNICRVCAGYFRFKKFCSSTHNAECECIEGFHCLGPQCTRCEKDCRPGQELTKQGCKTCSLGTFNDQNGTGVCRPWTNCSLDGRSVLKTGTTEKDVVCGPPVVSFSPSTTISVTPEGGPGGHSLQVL

[29] = target: T17, recombinant murine 4-1BB Fc(kih) (murine, UniProt P0DOX5 223-449 = IgG part, biotin on C-terminal Avi tag where used biotinylated); assay: SPR avidity format, murine 4-1BB Fc(kih) on SA chip
T17 construct: also called mu4-1BB

[30] = target: T18, human FAP (His-tagged ectodomain) (human, UniProt Q12884 27-760); assay: SPR, human FAP as second analyte
T18 construct: SPR texts say 'human FAP' or 'His-tagged ... dimeric FAP'; also called hu FAP; human FAP (analyte 2)

human OX40 on cells [31] = target: T1, human OX40 on cells; assay: flow cytometry, activated human CD4 T cells; remark: listed apart in the source
[32] = target: T5, cynomolgus OX40 on activated cynomolgus …; assay: flow cytometry, activated cynomolgus CD4 T cells

B1: 20B7 P329GLALA IgG1 (antibody, V domains shown)
VH: QVQLVQSGAEVKKPGSSVKVSCKASGGTFSSYAISWVRQAPGQGLEWMGGIIPIFGTANYAQKFQGRVTITADKSTSTAYMELSSLRSEDTAVYYCARVNYPYSYWGDFDYWGQGTTVTVSS
VL: DIQMTQSPSTLSASVGDRVTITCRASQSISSWLAWYQQKPGKAPKLLIYDASSLESGVPSRFSGSGSGTEFTLTISSLQPDDFATYYCQQYQAFSLTFGQGTKVEIKR
notes: anti-OX40
EC50 of NFκB activation in HeLa_hOx40_NFκB_luc1 reporter cells with secondary anti-human IgG Fcγ antibody (human OX40 on cells [1]): 2.27 nM
EC50 of rescuing suboptimal TCR stimulation with plate-immobilized anti-OX40 binder (preactivated human CD4 T cells) (human OX40 on cells [2]): 0.09 nM
binding result [3]: binds
Kd [4]: 5.6 nM
koff [4]: 0.00066 s⁻¹
kon [4]: 120000 M⁻¹ s⁻¹
Kd [5]: 42 nM
koff [5]: 0.0013 s⁻¹
kon [5]: 32000 M⁻¹ s⁻¹
EC50 (human OX40 on cells [6]): 1.64 nM
Kd [7]: 1100 nM
koff [7]: 0.0166 s⁻¹
kon [7]: 15700 M⁻¹ s⁻¹
EC50 [8]: 1.52 nM
binding result [9]: binds
Kd [10]: 360 nM
koff [10]: 0.018 s⁻¹
kon [10]: 49000 M⁻¹ s⁻¹

B2: clone 8A06 purified Fab (Fab, V domains shown)
VH: QVQLVQSGAEVKKPGSSVKVSCKASGGTFSSYAISWVRQAPGQGLEWMGGIIPIFGTANYAQKFQGRVTITADKSTSTAYMELSSLRSEDTAVYYCARGYYAIDYWGQGTTVTVSS
VL: SSELTQDPAVSVALGQTVRITCQGDSLRSYYASWYQQKPGQAPVLVIYGKNNRPSGIPDRFSGSSSGNTASLTITGAQAEDEADYYCNSPQTSGSAVFGGGTKLTVL
notes: bacterially expressed Fab of the lambda-DP88 library with CH1/CL and tags; also called 8A06 (Fab-format)
binding result [11]: no binding
Kd [12]: 4.4 nM
Kd [13]: 67 nM

B3: 12B3 P329GLALA IgG1 (antibody, V domains shown)
VH: QVQLVQSGAEVKKPGSSVKVSCKASGGTFSSYAISWVRQAPGQGLEWMGGIIPIFGTANYAQKFQGRVTITADKSTSTAYMELSSLRSEDTAVYYCARSEFRFYADFDYWGQGTTVTVSS
VL: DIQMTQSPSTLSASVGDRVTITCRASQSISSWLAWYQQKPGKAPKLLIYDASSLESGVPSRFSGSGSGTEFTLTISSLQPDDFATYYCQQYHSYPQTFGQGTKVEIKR
notes: anti-4-1BB; also called 12B3 IgG; 12B3 huIgG1 P329G LALA
EC50 of increase of IFNγ secretion in activated CD8+ T cells (surface-immobilized IgG) (human 4-1BB on cells [14]): 0.07 nM
binding result [15]: no binding
Kd [16]: 30 nM
koff [16]: 0.001 s⁻¹
kon [16]: 34000 M⁻¹ s⁻¹
EC50 (human 4-1BB on cells [17]): 0.95 nM
EC50 (human 4-1BB on cells [18]): 0.4 nM
Kd [19]: 20 nM
koff [19]: 0.00078 s⁻¹
kon [19]: 38000 M⁻¹ s⁻¹
binding result [20]: no binding
EC50 [21]: 0.59 nM
EC50 [22]: 0.47 nM
EC50 [23]: 1.4 nM
bracketed interval of the EC50 (not explained) [23]: 0.9 to 2.1 nM

The remaining lines, values ahead:

binding result [24]: no binding
binding result (human 4-1BB on cells [25]): no binding
EC50 [26]: 10.1 nM
EC50 [27]: 16.4 nM
Kd [28]: 14 nM
koff [28]: 0.00034 s⁻¹
kon [28]: 24000 M⁻¹ s⁻¹
binding result [29]: binds
B4: 20G2 P329GLALA IgG1 (antibody, V domains shown)
VH: QVQLVQSGAEVKKPGSSVKVSCKASGGTFSSYAISWVRQAPGQGLEWMGGIIPIFGTANYAQKFQGRVTITADKSTSTAYMELSSLRSEDTAVYYCARSYYWESYPFDYWGQGTTVTVSS
VL: DIQMTQSPSTLSASVGDRVTITCRASQSISSWLAWYQQKPGKAPKLLIYDASSLESGVPSRFSGSGSGTEFTLTISSLQPDDFATYYCQQQHSYYTFGQGTKVEIKR
notes: also called anti-mouse 4-1BB clone 20G2 huIgG1 P329G LALA

binding result [30]: no binding (tested: 250 nM)
EC50 (human OX40 on cells [31]): 0.11 nM
EC50 [32]: 0.07 nM
B5: OX40(49B4)/DP47 P329GLALA IgG1 4+2 (bispecific antibody)
heavy: not shown
light 1: DIQMTQSPSTLSASVGDRVTITCRASQSISSWLAWYQQKPGKAPKLLIYDASSLESGVPSRFSGSGSGTEFTLTISSLQPDDFATYYCQQYSSQPYTFGQGTKVEIKRTVAAPSVFIFPPSDRKLKSGTASVVCLLNNFYPREAKVQWKVDNALQSGNSQESVTEQDSKDSTYSLSSTLTLSKADYEKHKVYACEVTHQGLSSPVTKSFNRGEC
light 2: not shown
notes: also called 4+2 (49B4/DP47); untargeted 4+2 construct
